Test results taken from article PMC5877544, “D181A Site-Mutagenesis Enhances Both the Hydrolyzing and Transfructosylating Activities of BmSUC1, a Novel β-Fructofuranosidase in the Silkworm Bombyx mori” (International Journal of Molecular Sciences, 2018).
Where a chain is given by its changes, count along the chain named. Numbers in names are those of the source.

B1: BmSUC1 (wtBmSUC1) (Bombyx mori) (protein)
chain: LRQQNETTKRELEEYIADKKAEINPRYRPHYHISPPVGWMNDPNGFSYYKEKFHLFYQFYPYDSVWGPMHWGHVSSSNLIDWEHLPTALIPETEMCFSGGAVVHGDDLVLLYTGRVTTDTDPFYNETQYLAFSNDGVNFRKYEGNPVLSYVPDNSADFRDPKIWKFKDHWYVVIGSSSNKRGRVLLYRSGDLFNWEFLSVLGESDGDMGYMWECPDLFELGGKTIFLWSPQGLEPKGDRYKNTYQTGYYIGELDYETFEFKTDKYFQELDYGHDFYATQTIQGDGKTYLIGWFNMWEVPHLEKEDGWAGTTTLVRELQLIGTRITMNPLEGIQDLRTDSVHNGDLEPQQAIEFGPTAEIILQGCLDQKIELLIQGKEGGLVTTVTWDPEVGKVIVNRSGEVRQVEWVPIGKTSWRLFLDASSLELFCGEGEVVFSSRIFSDGDWVVKNSSPQTLSVEAYRLRRSVPA
notes: full coding region (488 aa, about 56 kDa), C-terminal 6xHis tag kept; expressed in BmN cells by Bac-to-Bac/BmNPV, secreted (N-terminal signal peptide), Ni-NTA purified from culture medium
B2: BmSUC1 (wtBmSUC1) (Bombyx mori; D181A) (protein)
chain: B1 chain with D160A
notes: as for B1

Tests used:
purified protein [1] = substrate: OC[C@H]1O[C@H](OC[C@H]2O[C@H](O[C@]3(CO)O[C@H](CO)[C@@H](O)[C@@H]3O)[C@H](O)[C@@H](O)[C@@H]2O)[C@H](O)[C@@H](O)[C@H]1O; assay: purified protein; type: biochemical, Bombyx mori; details: 10 mM Britton-Robinson buffer pH 7.0, 30 °C (standard assay), 2 μg protein, raffinose 10-70 mM
purified protein [2] = substrate: OC[C@H]1O[C@@](CO)(O[C@H]2O[C@H](CO)[C@@H](O)[C@H](O)[C@H]2O)[C@@H](O)[C@@H]1O; assay: purified protein; type: biochemical, Bombyx mori; details: 10 mM Britton-Robinson buffer pH 7.0, 30 °C (standard assay), 2 μg protein, sucrose 40-280 mM

Protein	Km (purified protein [1]) [mM]	kcat (purified protein [1]) [s⁻¹]	kcat/Km (purified protein [1]) [M⁻¹ s⁻¹]	Km (purified protein [2]) [mM]	kcat (purified protein [2]) [s⁻¹]	kcat/Km (purified protein [2]) [M⁻¹ s⁻¹]
B1	52.32 ± 17.22	0.025 ± 0.0028	0.291	88.32 ± 11.75	0.022 ± 0.0009	0.249
B2	32.03 ± 4.43	0.021 ± 0.0014	0.656	52.87 ± 6.85	0.025 ± 0.0004	0.473
